Here are results for five proteins from patent publication US20110151454.

Series [1] concerns the target HA-tagged p27 phosphorylated at T187 by CDK2/cyclinA, P46527.
Series [2] addresses HA-SKP2 phosphorylated in vitro by AKT (32P-SKP2), Q13309.

Sequence of HA-tagged p27 phosphorylated at T187 by CDK2/cyclinA, P46527 (P46527 whole entry, looked up): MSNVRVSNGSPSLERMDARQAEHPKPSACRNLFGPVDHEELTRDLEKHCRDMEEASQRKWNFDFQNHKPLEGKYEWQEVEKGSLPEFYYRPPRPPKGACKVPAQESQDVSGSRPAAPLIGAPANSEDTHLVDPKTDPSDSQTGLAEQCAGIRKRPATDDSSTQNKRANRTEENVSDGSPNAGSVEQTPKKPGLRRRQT
Sequence of HA-SKP2 phosphorylated in vitro by AKT (32P-SKP2), Q13309 (Q13309 whole entry, looked up): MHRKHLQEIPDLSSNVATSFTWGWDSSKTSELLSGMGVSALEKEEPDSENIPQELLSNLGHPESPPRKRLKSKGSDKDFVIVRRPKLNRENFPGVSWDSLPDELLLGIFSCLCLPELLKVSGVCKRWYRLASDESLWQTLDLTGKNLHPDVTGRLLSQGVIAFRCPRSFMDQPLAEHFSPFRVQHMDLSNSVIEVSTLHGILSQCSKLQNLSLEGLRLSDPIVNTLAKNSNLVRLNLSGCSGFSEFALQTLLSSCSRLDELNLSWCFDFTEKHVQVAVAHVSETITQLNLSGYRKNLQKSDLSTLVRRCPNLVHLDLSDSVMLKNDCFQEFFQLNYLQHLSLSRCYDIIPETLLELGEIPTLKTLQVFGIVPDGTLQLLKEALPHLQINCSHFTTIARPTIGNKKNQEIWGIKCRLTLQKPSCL

B1: gst-PPM1H (protein)
chain: MLTRVKSAVANFMGGIMAGSSGSEHGGGSCGGSDLPLRFPYGRPEFLGLSQDEVECSADHIARPILILKETRRLPWATGYAEVINAGKSTHNEDQASCEVLTVKKKAGAVTSTPNRNSSKRRSSLPNGEGLQLKENSESEGVSCHYWSLFDGHAGSGAAVVASRLLQHHITEQLQDIVDILKNSAVLPPTCLGEEPENTPANSRTLTRAASLRGGVGAPGSPSTPPTRFFTEKKIPHECLVIGALESAFKEMDLQIERERSSYNISGGCTALIVICLLGKLYVANAGDSRAIIIRNGEIIPMSSEFTPETERQRLQYLAFMQPHLLGNEFTHLEFPRRVQRKELGKKMLYRDFNMTGWAYKTIEDEDLKFPLIYGEGKKARVMATIGVTRGLGDHDLKVHDSNIYIKPFLSSAPEVRIYDLSKYDHGSDDVLILATDGLWDVLSNEEVAEAITQFLPNCDPDDPHRYTLAAQDLVMRARGVLKDRGWRISNDRLGSGDDISVYVIPLIHGNKLS
With B1, in series [1], the “dephosphorylation of p27 at S10 (phosphatase reaction, Western blot)” value (“dephosphorylation of p27 at S10” for short) is reported as “Neither enzyme exhibited activity at S10” and the “dephosphorylation of p27 at T187 (phosphatase reaction, Western blot)” value (from here on “dephosphorylation of p27 at T187”) is listed as “only PPM1H was effective at dephosphorylating p27 at T187”.

B2: flag-PPM1H-H153L (protein)
chain: MLTRVKSAVANFMGGIMAGSSGSEHGGGSCGGSDLPLRFPYGRPEFLGLSQDEVECSADHIARPILILKETRRLPWATGYAEVINAGKSTHNEDQASCEVLTVKKKAGAVTSTPNRNSSKRRSSLPNGEGLQLKENSESEGVSCHYWSLFDGLAGSGAAVVASRLLQHHITEQLQDIVDILKNSAVLPPTCLGEEPENTPANSRTLTRAASLRGGVGAPGSPSTPPTRFFTEKKIPHECLVIGALESAFKEMDLQIERERSSYNISGGCTALIVICLLGKLYVANAGDSRAIIIRNGEIIPMSSEFTPETERQRLQYLAFMQPHLLGNEFTHLEFPRRVQRKELGKKMLYRDFNMTGWAYKTIEDEDLKFPLIYGEGKKARVMATIGVTRGLGDHDLKVHDSNIYIKPFLSSAPEVRIYDLSKYDHGSDDVLILATDGLWDVLSNEEVAEAITQFLPNCDPDDPHRYTLAAQDLVMRARGVLKDRGWRISNDRLGSGDDISVYVIPLIHGNKLS
As for B2, the “dephosphorylation of p27 at T187” value in series [1] is “Wildtype PPM1H but not PPM1H-H153L dephosphorylated p27 at T187”.

B3: flag-PPM1H (protein)
chain: MLTRVKSAVANFMGGIMAGSSGSEHGGGSCGGSDLPLRFPYGRPEFLGLSQDEVECSADHIARPILILKETRRLPWATGYAEVINAGKSTHNEDQASCEVLTVKKKAGAVTSTPNRNSSKRRSSLPNGEGLQLKENSESEGVSCHYWSLFDGHAGSGAAVVASRLLQHHITEQLQDIVDILKNSAVLPPTCLGEEPENTPANSRTLTRAASLRGGVGAPGSPSTPPTRFFTEKKIPHECLVIGALESAFKEMDLQIERERSSYNISGGCTALIVICLLGKLYVANAGDSRAIIIRNGEIIPMSSEFTPETERQRLQYLAFMQPHLLGNEFTHLEFPRRVQRKELGKKMLYRDFNMTGWAYKTIEDEDLKFPLIYGEGKKARVMATIGVTRGLGDHDLKVHDSNIYIKPFLSSAPEVRIYDLSKYDHGSDDVLILATDGLWDVLSNEEVAEAITQFLPNCDPDDPHRYTLAAQDLVMRARGVLKDRGWRISNDRLGSGDDISVYVIPLIHGNKLS
On to B3, for which the “phosphate release from synthetic phospho-peptide (Pi ColorLock Gold assay)” value was “No evidence for PPM1H mediated dephosphorylation of the SKP2 phospho-peptides was observed” with SKP2 S72 phospho-peptide; “Liberation of phosphate was observed with the p27 peptides, most notably with the T187 peptide” in the series with p27 T157 phospho-peptide; “No evidence for PPM1H mediated dephosphorylation of the SKP2 phospho-peptides was observed” with SKP2 S64 phospho-peptide; “No evidence for PPM1H mediated dephosphorylation of the SKP2 phospho-peptides was observed” with SKP2 S75 phospho-peptide; “Liberation of phosphate was observed with the p27 peptides, most notably with the T187 peptide” with p27 T187 phospho-peptide; “Liberation of phosphate was observed with the p27 peptides, most notably with the T187 peptide” with p27 S10 phospho-peptide. The “dephosphorylation of p27 at S10” value in series [1] is “PPM1H exhibited no activity at the S10 site in this assay”. The “dephosphorylation of p27 at T187” value in series [1] was “Wildtype PPM1H but not PPM1H-H153L dephosphorylated p27 at T187”. Besides, the “removal of 32P from AKT-phosphorylated SKP2” value in series [2] is recorded as “PPM1H lacked activity”.

B4: gst-PPM1J (protein)
chain: MLNRVRSAVAHLVSSGGAPPPRPKSPDLPNAASAPPAAAPEAPRSPPAKAGSGSATPAKAVEARASFSRPTFLQLSPGGLRRADDHAGRAVQSPPDTGRRLPWSTGYAEVINAGKSRHNEDQACCEVVYVEGRRSVTGVPREPSRGQGLCFYYWGLFDGHAGGGAAEMASRLLHRHIREQLKDLVEILQDPSPPPLCLPTTPGTPDSSDPSHLLGPQSCWSSQKEVSHESLVVGAVENAFQLMDEQMARERRGHQVEGGCCALVVIYLLGKVYVANAGDSRAIIVRNGEIIPMSREFTPETERQRLQLLGFLKPELLGSEFTHLEFPRRVLPKELGQRMLYRDQNMTGWAYKKIELEDLRFPLVCGEGKKARVMATIGVTRGLGDHSLKVCSSTLPIKPFLSCFPEVRVYDLTQYEHCPDDVLVLGTDGLWDVTTDCEVAATVDRVLSAYEPNDHSRYTALAQALVLGARGTPRDRGWRLPNNKLGSGDDISVFVIPLGGPGSYS
For B4, in series [1], the “dephosphorylation of p27 at S10” value is recorded as “Neither enzyme exhibited activity at S10” and the “dephosphorylation of p27 at T187” value was “only PPM1H was effective at dephosphorylating p27 at T187”.

B5: λ-phosphatase (protein)
chain: MRYYEKIDGSKYRNIWVVGDLHGCYTNLMNKLDTIGFDNKKDLLISVGDLVDRGAENVECLELITFPWFRAVRGNHEQMMIDGLSERGNVNHWLLNGGGWFFNLDYDKEILAKALAHKADELPLIIELVSKDKKYVICHADYPFDEYEFGKPVDHQQVIWNRERISNSQNGIVKEIKGADTFIFGHTPAVKPLKFANQMYIDTGAVFCGNLTLIQVQGEGA
B5: in series [2], the “removal of 32P from AKT-phosphorylated SKP2” value is listed as “γ-phosphatase was able to dephosphorylate SKP2”.
